US20220054588A1, “USE OF SAP FOR THE TREATMENT OF EUROTIOMYCETES FUNGI INFECTIONS” (HUMANITAS MIRASOLE S.P.A., priority 2018, published 2022)

System: A. fumigatus
Test: Inflammatory response in BALFs after i.t. injection of Sap-opsonised conidia
Assay type: in vivo
Conditions: Apcs−/− mice, 16 h
Experimental: FIG. 5 depicts the rescue of susceptibility to A. fumigatus in SAP-deficient mice. a) b) c) d) i.t. injection of non-opsonised or Sap-opsonised AF conidia. a) survival of wt and Apcs^−/− mice. Wt, n=10; wt+Sap, n=10; Apcs^−/−, n=14; Apcs^−/−+Sap, n=13.****, P<0.0001, wt vs. Apcs^−/− or Apcs^−/− vs. Apcs^−/−+Sap (Mantel-Cox test). b) and c) levels of TNF-α (b) and MPO (c) in BALFs of mice (16 h). b),****, P<0.0001;**, P<0.01. c),***, P<0.0005. d, FACS analysis of neutrophil recruitment in lung (16 h). Mean±SEM.****, P<0.0001;*, P<0.05. b), c), d), Mean±SEM; Mann-Whitney test.
BALFs collection and analysis. BALFs were performed with 1.5 ml PBS, pH 7.4, containing protease inhibitors (Complete tablets, Roche Diagnostic; PMSF, Sigma-Aldrich) and 10 mM EDTA (Sigma-Aldrich) with a 22-gauge venous catheter. BALFs were centrifuged, and supernatants were collected for quantification of total protein content with Bradford's assay (Bio-RAD) and cytokines as described below. After erythrocyte lysis with ACK solution (pH 7.2; NH4Cl 0.15 M, KHCO3 10 mM, EDTA 0.1 mM), cells were resuspended in PBS, pH 7.4, containing 10 mM EDTA and 1% heat-inactivated fetal bovine serum (FCS; Sigma-Aldrich), stained with live and death dye (ThermoFisher Scientific-Molecular Probes) and analysed by BD FACS Canto™ II Flow Cytometer (BD Biosciences) with the following specific antibodies: peridinin chlorophyll protein complex (PerCP)—or brilliant violet (BV) 650-labelled anti-CD45 (#30-F11, IgG2b; 4 μg/ml); FITC- or phycoerythrin (PE)-CF594-labelled anti-Ly6G (#1A8, IgG2a; 4 μg/ml); allophycocyanin (APC)—or BV421-labelled anti-CD11b (#M 1/70, RUO, IgG2b; 1 μg/ml) (all from BD Biosciences).
Proteins. A recombinant murine SAP from mouse myeloma cell line NSO was used (R&D Systems). Native SAP from human serum was purchased by Merck-Millipore. […] Purity of the recombinant protein was assessed by SDS-PAGE followed by silver staining. […] SAP levels were measured in mouse plasma by ELISA (DuoSet ELISA; R&D Systems). Murine TNF-α, CCL2, MPO were measured by ELISA (DuoSet ELISA; R&D Systems). […]

B1: recombinant murine SAP: recombinant murine SAP from mouse myeloma cell line NSO (R&D Systems) (protein, UniProt P12246 21-224, looked up)
Serum amyloid P-component: QTDLKRKVFVFPRESETDHVKLIPHLEKPLQNFTLCFRTYSDLSRSQSLFSYSVKGRDNELLIYKEKVGEYSLYIGQSKVTVRGMEEYLSPVHLCTTWESSSGIVEFWVNGKPWVKKSLQREYTVKAPPSIVLGQEQDNYGGGFQRSQSFVGEFSDLYMWDYVLTPQDILFVYRDSPVNPNILNWQALNYEINGYVVIRPRVWD
normalized: MPO level in BALFs | TNF-α level in BALFs | neutrophil number in BALFs
